Biological target: SMB20 peptide (Homo sapiens, UniProt P14678)
Assay: ITC

B1: FBP21 WW domains (protein)
chain: DPSKGRWVEGITSEGYHYYYDLISGASQWEKPEGFQGDLKKTAVKTVWVEGLSEDGFTYYYNTETGESRWEKPDD
Kd: 16.4 µM

Reference: publication PMC3399765 (2011)
